{"source": "patent US20190071490A1", "about": "“Preventing Post-Ictal Headaches” (Beth Israel Deaconess Medical Center, Inc., priority 2017, published 2019)", "molecules": {"B1": {"name": "M46: G1 variant; L1 R28N; L2 G50A L56T; H2 E54K A57N S58E H61F; HC-FW3 L99T A100V (antibody, V domains shown)", "VH": "EVQLVESGGGLVQPGGSLRLSCAASGFTFSNYWISWVRQAPGKGLEWVAEIRSKSDNEATFYAEAVKGRFTISRDNAKNSLYLQMNSLRAEDTAVYYCTVYFDYGLAIQNYWGQGTLVTVSS", "VL": "EIVLTQSPATLSLSPGERATLSCKASKNVTTYVSWYQQKPGQAPRLLIYAASNRYTGIPARFSGSGSGTDFTLTISSLEPEDFAVYYCSQSYNYPYTFGQGTKLEIK"}, "B2": {"name": "M25: G1 variant; L1 R28N; HC-FW3 L99T A100V (antibody, V domains shown)", "VH": "B1 VH with K54E, N57A, E58S, F61H", "VL": "B1 VL with A50G, T56L"}, "B3": {"name": "M49: G1 variant; L1 R28N; L2 G50A L56T; H2 E54K A57N S58Y H61F; HC-FW3 L99T A100V (antibody, V domains shown)", "VH": "B1 VH with E58Y", "VL": "B1 VL"}, "B4": {"name": "M52: G1 variant; L1 R28N; L2 L561; H2 E54K A57N S58A; HC-FW3 L99T A100V (antibody, V domains shown)", "VH": "B1 VH with E58A, F61H", "VL": "B1 VL with A50G, T56I"}, "B5": {"name": "M48: G1 variant; L1 R28N; L2 G50A L56T; H2 E54K A57N S58L; HC-FW3 L99T A100V (antibody, V domains shown)", "VH": "B1 VH with E58L, F61H", "VL": "B1 VL"}, "B6": {"name": "M51: G1 variant; L1 R28N; L2 L561; H2 E54K A57G; HC-FW3 L99T A100V (antibody, V domains shown)", "VH": "B1 VH with N57G, E58S, F61H", "VL": "B1 VL with A50G, T56I"}, "B7": {"name": "M47: G1 variant; L1 R28N; L2 G50A L56T; H2 E54K A57N S58G; HC-FW3 L99T A100V (antibody, V domains shown)", "VH": "B1 VH with E58G, F61H", "VL": "B1 VL"}, "B8": {"name": "M53: G1 variant; L1 R28N; L2 L561; H2 E54K A57N S58G; HC-FW3 L99T A100V (antibody, V domains shown)", "VH": "B1 VH with E58G, F61H", "VL": "B1 VL with A50G, T56I"}, "B9": {"name": "M50: G1 variant; L1 R28N; L2 G50A L56T; H2 E54K A57R; HC-FW3 L99T A100V (antibody, V domains shown)", "VH": "B1 VH with N57R, E58S, F61H", "VL": "B1 VL"}}, "note": "Positions count from the first letter of the chain named. Names may count otherwise."}
{"molecular_target": "T1, rat α-CGRP (Rattus norvegicus, UniProt P01256)", "T1 construct": "rat α (1-37); purchased GenScript Corporation or Global Peptide Services", "T1 sequence (P01256 83-119 limits assumed)": "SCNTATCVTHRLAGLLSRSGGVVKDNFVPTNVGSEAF", "assay": "Biacore SPR affinity of Fab fragments to N-biotinylated rat α-CGRP on SA chip", "format": "binding", "conditions": "37° C., screening mode except underlined values", "description": "(§1) Affinity determination of the Fabs. Affinities of the anti-CGRP monoclonal antibodies were determined at either 25° C. or 37° C. using the BIACORE3000™ surface plasmon resonance (SPR) system (Biacore, INC, Piscataway N.J.) with the manufacture's own running buffer, HBS-EP (10 mM HEPES pH 7.4, 150 mM NaCl, 3 mM EDTA, 0.005% v/v polysorbate P20). Affinity was determined by capturing N-terminally biotinylated CGRP peptides (custom ordered from GenScript Corporation, New Jersey or Global Peptide Services, Colorado) via pre-immobilized streptavidin on SA chip and measuring binding kinetics of antibody Fab titrated across the CGRP surface. Biotinylated CGRP was diluted into HBS-EP and injected over the chip at a concentration of less than 0.001 mg/ml. Using variable flow time across the individual chip channels, two ranges of antigen density were achieved: <50 response units (RU) for detailed kinetic studies and about 800 RU for concentration studies and screening. […] After each binding cycle, surfaces were regenerated with 25 mM NaOH in 25% v/v ethanol, which was tolerated over hundreds of cycles. Kinetic association rate (kon) and dissociation rate (koff) were obtained simultaneously by fitting the data to a 1:1 Langmuir binding model (Karlsson et al. (1994). Methods Enzymology 6. 99-110) using the BIAevaluation program. Global equilibrium dissociation constants (KD) or “affinities” were calculated from the ratio KD=koff/kon.\n(§2) Biacore assay for affinity determination. […] All Biacore assays were conducted in HBS-EP running buffer (10 mM HEPES pH 7.4, 150 mM NaCl, 3 mM EDTA, 0.005% v/v polysorbate P20). CGRP surfaces were prepared by diluting the N-biotinylated CGRP to a concentration of less than 0.001 mg/mL into HBS-EP buffer and injecting it across the SA sensor chip using variable contact times. Low capacity surfaces, corresponding to capture levels <50 response units (RU) were used for high-resolution kinetic studies, whereas high capacity surfaces (about 800 RU of captured CGRP) were used for concentration studies, screening, and solution affinity determinations. […] Samples were typically injected for 1 minute at 100 μL/min and dissociation times of at least 10 minutes were allowed. After each binding cycle, surfaces were regenerated with 25 mM NaOH in 25% v/v ethanol, which was tolerated over hundreds of cycles. An entire titration series (typically generated in duplicate) was fit globally to a 1:1 Langmuir binding model using the BIAevaluation program. This returned a unique pair of association and dissociation kinetic rate constants (respectively, kon and koff) for each binding interaction, whose ratio gave the equilibrium dissociation constant (KD=koff/kon).\n(§3) High-resolution analysis of binding interactions with extremely slow off rates. […] The protocol described above was used with the following modifications. The association rate constant (kon) was determined by injecting a 2-fold titration series (in duplicate) spanning 550 nM-1 nM for 30 seconds at 100 μL/min and allowing only a 30 second dissociation phase. The dissociation rate constant (koff) was determined by injecting three concentrations (high, medium, and low) of the same titration series in duplicate for 30 seconds and allowing a 2-hour dissociation phase. The affinity (KD) of each interaction was obtained by combining the kon and koff values obtained in both types of experiments, as shown in Table 4.", "units": {"α-rat koff": "s⁻¹"}}
{"molecule": "B1", "α-rat koff": 0.00294}
{"molecule": "B2", "α-rat koff": 0.0014}
{"molecule": "B3", "α-rat koff": 0.0148}
{"molecule": "B4", "α-rat koff": 0.00229}
{"molecule": "B5", "α-rat koff": 0.0343}
{"molecule": "B6", "α-rat koff": 0.00118}
{"molecule": "B7", "α-rat koff": 0.00823}
{"molecule": "B8", "α-rat koff": 0.00191}
{"molecule": "B9", "α-rat koff": 0.0053}
{"molecular_target": "T2, human α-CGRP (Homo sapiens, UniProt P06881)", "T2 construct": "1-37 (WT); purchased GenScript Corporation or Global Peptide Services", "T2 sequence (P06881 83-119 limits assumed)": "T1 sequence (P01256 83-119 limits assumed) with S1A, N3D, D25N, E35K", "assay": "Biacore SPR affinity of Fab fragments to N-biotinylated human α-CGRP on SA chip", "format": "binding", "conditions": "37° C., screening mode except underlined values", "description": "as §1, §2, §3", "units": {"α-human koff": "s⁻¹"}}
{"molecule": "B1", "α-human koff": 0.000539}
{"molecule": "B3", "α-human koff": 0.000595}
{"molecule": "B4", "α-human koff": 0.000281}
{"molecule": "B5", "α-human koff": 0.000842}
{"molecule": "B6", "α-human koff": 0.000131}
{"molecule": "B7", "α-human koff": 0.000332}
{"molecule": "B8", "α-human koff": 0.000374}
{"molecule": "B9", "α-human koff": 0.000406}
